This passage reports OD405, OD405 as percent of that of the wild type ENO1 and OD450 results from patent publication US20190322762A1.

Assay [1] deals with ENO1 mutant 1-189 (human) (UniProt P06733). The assay can be described thus: ELISA, 400 ng protein coated, 10 microgram of EN10 mAb. On the technique in general: An ELISA detects its analyte on a solid surface through an enzyme-linked reagent.
The target of assay [2] is ENO1 mutant 1-297 (human) (UniProt P06733). Described as above.
In assay [3] the target is ENO1 with amino acid residues 297 to 434 deleted (human) (UniProt P06733). The assay can be described thus: ELISA, ENO1 deletion mutant Δ297-434 coated, 10 microgram of EN10 mAb.
Sequence of ENO1 with amino acid residues 297 to 434 deleted (human) (P06733 1-296, stated change not applied): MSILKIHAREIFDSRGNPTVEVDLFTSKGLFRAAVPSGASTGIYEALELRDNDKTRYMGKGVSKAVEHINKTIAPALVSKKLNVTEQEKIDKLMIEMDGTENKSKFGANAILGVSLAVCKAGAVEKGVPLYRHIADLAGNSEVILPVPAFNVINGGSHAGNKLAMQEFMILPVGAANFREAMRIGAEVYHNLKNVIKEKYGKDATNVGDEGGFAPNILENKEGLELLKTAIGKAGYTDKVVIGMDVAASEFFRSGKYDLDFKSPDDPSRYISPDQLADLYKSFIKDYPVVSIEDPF

B1: EN10 mAb (antibody, V domains shown)
VH: EVQLQQSGPELVKPGASVKMSCKASGYTFTSCVMNWVKQKPGQGLEWIGYINPYNDGTKYNEKFKGKATLTSDKSSSTAYMELSSLTSEDSAVYYCAREGFYYGNFDNWGQGTTLTVSS
VL: DIQMTQSPASLSASVGETVTITCRASENIYSYLTWYQQKQGKSPQLLVYNAKTLPEGVPSRFSGSGSGTQFSLKINSLQPEDFGSYYCQHHYGTPYTFGGGTKLEITR
In assay [1], B1 registered an OD405 of 1.43 OD405 and an OD405 as percent of that of the wild type ENO1 of 42%. In assay [2], this molecule displayed an OD405 of 1.56 OD405 and an OD405 as percent of that of the wild type ENO1 of 39%. The molecule further yielded an OD450 in assay [3] of 0.47.
